Laboratory results as given in the supplement of paper PMC7877785.
± gives the uncertainty stated by the source.

Experiment: self-splicing fitness, log relative to wild type (ln ratio); higher = more splicing; Tetrahymena group I intron in knt gene, E. coli kanamycin selection, DiMSum; sequences stand for … in CUCUCU…GGAGGGAAAAGUUAUCAGGCAUGCACCUGGUAGCUAGUCUUUAAACCAAUAGAUUGCAUCGGUUUAAAAGGCAAGACCGUCAAAUUGCGGGAAAGGGGUCAACAGCCGUUCAGUACCAAGUCUCAGGGGAAACUUUGAGAUGGCCUUGCAAAGGGUAUGGUAAUAAGCUGACGGACAUGGUCCUAACCACGCAGCCAAGUCCUAAGUCAACAGAUCUUCUGUUGAUAUGGAUGCAGUUCACAGACUAAAUGUCGGUCGGGGAAGAUGUAUUCUUCUCAUAAGAUAUAGUCGGACCUCUCCUUAAUGGGAGCUAGCGGAUGAAGUGAUGCAACACUGGAGCCGCUGGGAACUAAUUUGUAUGCGAAAGUAUAUUGAUUAGUUUUGGAGUACUCGUGGUCG
Summary of the method: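 Library with all eight P1ex-region intron nucleotides randomised, intron inside the knt kanamycin-resistance gene on pET-22b(+), in E. coli BL21(DE3). Cells grew overnight at 37°C or 30°C on LB agar with or without 25 μg/mL kanamycin (plus 100 μg/mL carbenicillin, 50 μM IPTG, 0.2% rhamnose), in six replicate transformations. Pooled colonies were amplicon-sequenced on Illumina HiSeq 2500. DiMSum fitness is the error-weighted combination of wild-type-normalised replicate fold changes, kanamycin versus none.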

Row | Sequence | self-splicing fitness (ln) (37 °C) | self-splicing fitness (ln) (30 °C)
1 | ACAGAGCAAUAUUACGAGUA | -2.34 ± 0.27 | –
2 | CAAAAGCAAUAUUACGGCUU | -2.39 ± 0.11 | -3.44 ± 0.11
3 | UCAUAGCAAUAUUACGUUGA | -2.75 ± 0.16 | -3.91 ± 0.29
4 | UCUCAGCAAUAUUACGUAUC | -1.9 ± 0.25 | -3.5 ± 0.24
5 | CGGCAGCAAUAUUACGAAUG | -0.00804 ± 0.099 | 0.0635 ± 0.086
6 | CAUGAGCAAUAUUACGGAUG | -2.01 ± 0.26 | -3.02 ± 0.31
7 | CCUCAGCAAUAUUACGUUCG | -0.795 ± 0.075 | -2.69 ± 0.077
8 | CACUAGCAAUAUUACGGAUG | -1.39 ± 0.079 | -2.42 ± 0.083
9 | CCGUAGCAAUAUUACGCGGG | -3.61 ± 0.39 | -4.02 ± 0.33
10 | CACCAGCAAUAUUACGGUGC | -1.81 ± 0.15 | -3.89 ± 0.21
11 | GCGCAGCAAUAUUACGCACG | -1.39 ± 0.3 | –
12 | GAAAAGCAAUAUUACGGUAU | -1.69 ± 0.14 | -2.38 ± 0.11
13 | UGCAAGCAAUAUUACGUCAC | -2.27 ± 0.24 | -2.88 ± 0.47
14 | CCGGAGCAAUAUUACGGGUU | -2.67 ± 0.37 | -3.85 ± 0.39
15 | UAUGAGCAAUAUUACGGUAG | -1.88 ± 0.36 | -1.79 ± 0.37
16 | GACAAGCAAUAUUACGGGUC | -3.15 ± 0.28 | -3.73 ± 0.19
17 | CCCGAGCAAUAUUACGAAAA | -1.74 ± 0.42 | -2.67 ± 0.46
18 | AGUGAGCAAUAUUACGAUGU | -2.51 ± 0.25 | -3.64 ± 0.3
19 | UGCAAGCAAUAUUACGAGAG | -2.97 ± 0.21 | -3.4 ± 0.2
20 | GAGAAGCAAUAUUACGUGUA | -1.41 ± 0.13 | -2.8 ± 0.15
21 | CCCAAGCAAUAUUACGGAAU | -2.94 ± 0.22 | -3.88 ± 0.26
22 | CGACAGCAAUAUUACGCACG | -2.31 ± 0.35 | -3.74 ± 0.4
23 | GGACAGCAAUAUUACGAGGA | -1.85 ± 0.16 | -2.32 ± 0.2
24 | CGCUAGCAAUAUUACGAAUA | -2.57 ± 0.23 | -2.58 ± 0.19
25 | ACUAAGCAAUAUUACGUCAG | -1.57 ± 0.23 | -2.63 ± 0.16

Row | Sequence | self-splicing fitness (ln) (37 °C) | self-splicing fitness (ln) (30 °C)
26 | UUAUAGCAAUAUUACGAAGA | -1.99 ± 0.32 | –
27 | AGCCAGCAAUAUUACGUAAC | -2.04 ± 0.2 | -2.67 ± 0.1
28 | GUCAAGCAAUAUUACGCAGC | -3.49 ± 0.35 | –
29 | GUUUAGCAAUAUUACGUCCA | -1.18 ± 0.28 | -1.53 ± 0.24
30 | GAGAAGCAAUAUUACGGAAU | -1.55 ± 0.2 | -3.69 ± 0.25
31 | GUGUAGCAAUAUUACGCGUG | -1.49 ± 0.15 | -3.82 ± 0.26
32 | CCCUAGCAAUAUUACGUGAU | -2.27 ± 0.14 | -2.33 ± 0.076
33 | CAACAGCAAUAUUACGGGGU | -2.79 ± 0.15 | -4.57 ± 0.23
34 | UUAAAGCAAUAUUACGGUAU | -1.22 ± 0.11 | -2.14 ± 0.086
35 | CCUUAGCAAUAUUACGACAG | -0.864 ± 0.14 | -1.81 ± 0.11
36 | UGCAAGCAAUAUUACGCGUU | -1.29 ± 0.14 | -2.66 ± 0.16
37 | CGUGAGCAAUAUUACGACAG | -0.318 ± 0.1 | -0.792 ± 0.092
38 | AUCGAGCAAUAUUACGUUGG | -2.37 ± 0.31 | -4.07 ± 0.42
39 | GGCCAGCAAUAUUACGCUCU | -0.0247 ± 0.17 | -0.639 ± 0.12
40 | GGACAGCAAUAUUACGCGUA | -0.68 ± 0.073 | -0.744 ± 0.065
41 | AGUGAGCAAUAUUACGAUAU | -2.22 ± 0.28 | -3.14 ± 0.25
42 | UCGAAGCAAUAUUACGUCGC | -1.86 ± 0.19 | -1.76 ± 0.14
43 | UUCGAGCAAUAUUACGAGUC | -2.03 ± 0.45 | -2.82 ± 0.29
44 | CGAUAGCAAUAUUACGACCA | -0.619 ± 0.33 | -0.39 ± 0.46
45 | CAACAGCAAUAUUACGUUGG | -1.5 ± 0.095 | -2.86 ± 0.096
46 | UCGAAGCAAUAUUACGCUAU | -3.36 ± 0.42 | -3.24 ± 0.19
47 | CUUAAGCAAUAUUACGGGAC | -1.26 ± 0.13 | -3.6 ± 0.28
48 | AAGCAGCAAUAUUACGCUUG | -2.14 ± 0.16 | -2.89 ± 0.16
49 | UCUUAGCAAUAUUACGCGCU | -3.27 ± 0.39 | -3.3 ± 0.47
50 | UGGGAGCAAUAUUACGGGCC | -1.92 ± 0.35 | -2.63 ± 0.32

Row | Sequence | self-splicing fitness (ln) (37 °C) | self-splicing fitness (ln) (30 °C)
51 | ACUAAGCAAUAUUACGGGGU | -2.2 ± 0.19 | -4.13 ± 0.28
52 | ACGUAGCAAUAUUACGAGGC | -2.11 ± 0.39 | –
53 | GGCGAGCAAUAUUACGGCAA | -0.442 ± 0.2 | -0.896 ± 0.19
54 | AAAGAGCAAUAUUACGCUUA | -3.02 ± 0.23 | -2.74 ± 0.31
55 | AACUAGCAAUAUUACGCGGA | -1.18 ± 0.086 | -2.25 ± 0.1
56 | AGUCAGCAAUAUUACGUGGC | -2.21 ± 0.15 | -2.31 ± 0.16
57 | CAGUAGCAAUAUUACGAUAC | -2.51 ± 0.41 | -3.55 ± 0.36
58 | CUUAAGCAAUAUUACGGUCG | 0.0238 ± 0.093 | 0.0331 ± 0.082
59 | UGGAAGCAAUAUUACGAGAG | -3.3 ± 0.33 | -3.79 ± 0.47
60 | AGGUAGCAAUAUUACGGACG | -0.546 ± 0.034 | -1.46 ± 0.015
61 | CACUAGCAAUAUUACGACGA | -1.16 ± 0.17 | -2.06 ± 0.16
62 | GGCAAGCAAUAUUACGGCCU | 0.111 ± 0.23 | -2.74 ± 0.18
63 | CGAAAGCAAUAUUACGUGAA | -1.17 ± 0.12 | -2.52 ± 0.092
64 | CAUGAGCAAUAUUACGGGUU | -3.05 ± 0.16 | -3.04 ± 0.1
65 | ACUGAGCAAUAUUACGCAAC | – | -3.87 ± 0.31
66 | GGUCAGCAAUAUUACGACAU | 0.148 ± 0.033 | 0.0683 ± 0.013
67 | AAACAGCAAUAUUACGCCAG | -2.11 ± 0.22 | -4.93 ± 0.39
68 | AUGAAGCAAUAUUACGGUGC | -1.99 ± 0.19 | -2.3 ± 0.15
69 | GACGAGCAAUAUUACGAUCA | -0.86 ± 0.23 | -2.22 ± 0.36
70 | UGACAGCAAUAUUACGAGAC | -2.72 ± 0.46 | -3.79 ± 0.49
71 | GGUCAGCAAUAUUACGACCA | -0.657 ± 0.23 | -0.982 ± 0.16
72 | UAGGAGCAAUAUUACGCGGG | -1.24 ± 0.21 | –
73 | GUGAAGCAAUAUUACGACGG | -0.418 ± 0.23 | -0.531 ± 0.12
74 | GACUAGCAAUAUUACGCUAU | -3.22 ± 0.43 | –
75 | CUCAAGCAAUAUUACGGCGA | -1.87 ± 0.23 | -2.71 ± 0.2

Row | Sequence | self-splicing fitness (ln) (37 °C) | self-splicing fitness (ln) (30 °C)
76 | AGAAAGCAAUAUUACGUCAA | -0.692 ± 0.1 | -1.61 ± 0.11
77 | GGUAAGCAAUAUUACGUCAA | -1.62 ± 0.2 | -1.9 ± 0.26
78 | CAGAAGCAAUAUUACGUCCU | -0.858 ± 0.16 | -1.94 ± 0.18
79 | CUAUAGCAAUAUUACGUAGU | -2.26 ± 0.23 | -2.88 ± 0.16
80 | CUCAAGCAAUAUUACGGUAG | -0.579 ± 0.08 | -2.03 ± 0.074
81 | GCUCAGCAAUAUUACGGAGG | -0.504 ± 0.091 | -1.44 ± 0.08
82 | AGAUAGCAAUAUUACGCACA | -0.123 ± 0.087 | -0.827 ± 0.07
83 | CACUAGCAAUAUUACGAUAA | -1.59 ± 0.15 | -3.35 ± 0.2
84 | UCAAAGCAAUAUUACGCGGA | -1.37 ± 0.11 | -2.87 ± 0.13
85 | GAAGAGCAAUAUUACGUGAC | -1.72 ± 0.18 | -3.21 ± 0.22
86 | AGGUAGCAAUAUUACGGUAU | -1.07 ± 0.033 | -1.957 ± 0.015
87 | CUGUAGCAAUAUUACGUGCC | -2.21 ± 0.24 | -3.49 ± 0.35
88 | UUGUAGCAAUAUUACGAGAA | -1.42 ± 0.3 | -1.54 ± 0.3
89 | UACGAGCAAUAUUACGUUGC | -2.18 ± 0.33 | -3.28 ± 0.32
90 | GUUUAGCAAUAUUACGAAAU | -1.85 ± 0.19 | -1.54 ± 0.11
91 | ACAUAGCAAUAUUACGCAUU | -2.46 ± 0.13 | -3.32 ± 0.11
92 | GUCGAGCAAUAUUACGUAUC | -1.42 ± 0.15 | -0.209 ± 0.13
93 | ACGAAGCAAUAUUACGUAAC | -2.34 ± 0.49 | -4.3 ± 0.42
94 | CAAUAGCAAUAUUACGUAGC | -2.05 ± 0.3 | –
95 | GUAAAGCAAUAUUACGGCAG | -2.25 ± 0.3 | -1.5 ± 0.15
96 | GCUCAGCAAUAUUACGAGUG | -0.148 ± 0.092 | -1.21 ± 0.063
97 | GCUGAGCAAUAUUACGGUUC | -1.69 ± 0.15 | -2.48 ± 0.14
98 | CAUCAGCAAUAUUACGGUUC | -0.935 ± 0.13 | -2.65 ± 0.14
